Substitutions are numbered along the chain they refer to. In names and notes the source's numbering stands.
Assays:
[1] = target: the molecule itself; assay: SEC; gel filtration chromatography; WT serially diluted from 2 mg/mL to 0.25 mg/mL; mutants compared with WT at matched concentrations by elution position
[2] = target: the molecule itself; assay: SEC-MALS; MBP-tagged WD40 domain injected at 2 mg/mL; in-line size exclusion column, three-angle light scattering and refractive index detectors

B1: LRRK2 WD40 domain mutant M2408E (domain or fragment, human, UniProt Q5S007 2142-2527, looked up)
chain: RRILLPKNVIVECMVATHHNSRNASIWLGCGHTDRGQLSFLDLNTEGYTSEEVADSRILCLALVHLPVEKESWIVSGTQSGTLLVINTEDGKKRHTLEKMTDSVTCLYCNSFSKQSKQKNFLLVGTADGKLAIFEDKTVKLKGAAPLKILNIGNVSTPLMCLSESTNSTERNVMWGGCGTKIFSFSNDFTIQKLIETRTSQLFSYAAFSDSNIITVVVDTALYIAKQNSPVVEVWDKKTEKLCGLIDCVHFLREVMVKENKESKHKESYSGRVKTLCLQKNTALWIGTGGGHILLLDLSTRRLIRVIYNFCNSVRVMMTAQLGSLKNVMLVLGYNRKNTEGTQKQKEIQSCLTVWDINLPHEVQNLEKHIEVRKELAEKMRRTSVE
notes: LRRK2, human, WD40 domain, residues 2142-2527, with M2408E; Probably MBP-tagged and from Sf9 as the WT; methods in the SI Appendix; source: purified proteins
- binding result [1]: binds

B2: LRRK2 WD40 domain PD-associated variant Y2189C (domain or fragment, human, UniProt Q5S007 2142-2527, looked up)
chain: B1 chain with Y48C, E267M
notes: LRRK2, human, WD40 domain, residues 2142-2527, with the PD-associated variant Y2189C; Probably MBP-tagged and from Sf9 as the WT; methods in the SI Appendix; source: purified proteins
- binding result [1]: binds

B3: MBP-tagged LRRK2 WD40 domain, wild type (domain or fragment, human, UniProt Q5S007 2142-2527, looked up)
chain: B1 chain with E267M
notes: leucine-rich repeat kinase 2 (LRRK2), human, WD40 domain, residues 2142-2527; MBP-tagged monomer calculated at about 83 kDa; The tag is named for the MALS runs; also called WT WD40 domain; source: Sf9 insect cells via baculovirus infection, purified to homogeneity
- stoichiometry N [2]: 2
